In the supplement of paper PMC12764529:
± gives the half width of the 95% confidence interval.

Legend:
[1] = folding stability dG unfold from trypsin proteolysis; higher = more stable
Procedure, shortened: (§1)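 Mini-proteins designed to be under 80 residues and free of cysteine were carried in a PA-tagged cDNA display construct and digested with trypsin and with chymotrypsin. Each protease was applied at 11 threefold-diluted concentrations, alongside a no-protease condition, before sequencing. K50 came from Bayesian fitting of the sequencing counts, and unfolding free energy was obtained by comparing it with a sequence-predicted unfolded-state K50 and a shared folded-state K50, for each protease separately or for both together. Designs were retained only if their AlphaFold2 dimer inter-PAE exceeded 15.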

[2] = folding stability dG unfold from chymotrypsin proteolysis; higher = more stable
Procedure, shortened: as §1

[3] = folding stability dG unfold (combined trypsin and chymotrypsin); higher = more stable
Procedure, shortened: as §1

Row | Sequence | folding stability dG unfold [1] [kcal/mol] | folding stability dG unfold [2] [kcal/mol] | folding stability dG unfold [3] [kcal/mol]
1 | SAGMIEILELPPNKAIVKIYDPKTGKFEIIEIDFGGKDGKPLSLEELIEKIKKLAKELYPDLEINVTPLSAG [r5_293_TrMRF] | 3.28 ± 0.26 | 1.98 ± 0.063 | 2.61 ± 0.17
2 | SAGMIEISEEGDTLTVTVPPGVSLEEVREYVEKKYPGMDLQEITETALPDGTTTVTFNVKKNPPSPKLLSAG [r5_110_JUSTAS] | -0.658 ± 0.37 | 0.699 ± 0.23 | 0.316 ± 0.16
3 | SAGMIEITLYPPKAVVDVTVTIGGESESRTIPVDGKSKEEVIEEAREEVKAEYPDKAITTKVTEVPGDGSAG [r5_180_JUSTAS] | -0.437 ± 0.18 | 1.03 ± 0.098 | 0.641 ± 0.071
4 | SAGMIKPEEIVEKVKAIFEEEGLENVTVKVYYDEETDEIFVEVEVELEPEEEEKAQAILDKIKKELGLESAG [r5_9_TrMRF] | 3.02 ± 0.29 | 2.38 ± 0.23 | 2.85 ± 0.21
5 | SAGMIKVEVVVPPEDPSKPPSEEELRALAEEVVRELGLDPAKHPIEIKREVVDPEKGVLRYTITVKLPSAGG [r19_244_JUSTAS] | 3.09 ± 0.092 | 2.87 ± 0.069 | 2.96 ± 0.11
6 | SAGMIKVEVYTLDPNGVLTKETYEIPLLPGTPIEEVVNELTEPGTGAVEIVEYNPPPPEIKIKIVRFPASAG [r5_227_TrMRF] | 1.48 ± 0.43 | 2.94 ± 0.09 | 2.49 ± 0.23
7 | SAGMILPPNTVVTLSTTTTEELPLFTDGSGPRTTTTETVVTVEPVPVNPYPDPAVREKLLAEGKPLELLSAG [r5_624_JUSTAS] | -0.513 ± 0.13 | -0.207 ± 0.13 | -0.265 ± 0.12
8 | SAGMIRIIVDGKEVEEIEMSEEELRALLADPNIKKARVFVNGEEKEVEVKEGEIKEKLPPGAVIRIEKSAGG [r19_152_TrROS_Hall] | 1.45 ± 0.061 | 2.04 ± 0.031 | 1.79 ± 0.12
9 | SAGMITPEELEERIRKLAEETGGPRYRVKVRGPDGPLYEFEVGFTPEEIERLAKELGVDIVEVEPIPESAGG [r19_50_TrMRF] | 2.97 ± 0.085 | 3.07 ± 0.13 | 3 ± 0.11
10 | SAGMKIKITLPNGAEFESNPETGKIEVIDPETGKPLIAYIPKDRPDIAFIFDPDNPKPLFEVKIDEIYPSAG [r5_761_TrMRF] | 0.889 ± 0.016 | 1.27 ± 0.042 | 1.11 ± 0.051
11 | SAGMKIRILILGKGDPAQVEALAKELEAKLKEELGTEDVEVETLPASLTEEAAEERAKEEKVDIVVYESAGG [r19_89_JUSTAS] | 0.85 ± 0.045 | 1.08 ± 0.13 | 0.99 ± 0.09
12 | SAGMKITVKAVLKKGEKEYEVEFEADSLEEIIGAILELYEKLNFDELRVKIKIGDKEYEIELPFLIPDESAG [r5_946_TrMRF] | 4.28 ± 0.41 | 4.2 ± 0.68 | 4.24 ± 0.94
13 | SAGMKKLPSEEERKKAEELAKKGELVIIIRLKNGEKLVIVVKSEEELKELLKKLPLEIEEIYVFKVKKKSAG [r5_481_TrROS_Hall] | 1.72 ± 0.028 | 2.26 ± 0.049 | 2.07 ± 0.16
14 | SAGMKKTITIKIEVPEKPIRIIVEKNGKKEEITIKPGETVTIEIELEPGETLRIRIVNEDGEEFEFEIKSAG [r5_187_TrROS_Hall] | 4.15 ± 0.3 | 3.45 ± 0.12 | 3.68 ± 0.28
15 | SAGMKKVEIVEEVKDPETNEPVILVRDKDTGELVKFHPNGKVTIYDLNDPNKAKVFEAKISDVLEELANSAG [r5_491_TrMRF] | 0.622 ± 0.071 | 1.28 ± 0.19 | 0.847 ± 0.21
16 | SAGMKLTVTITDPATGKTYTITVKPGGETTVTNGSSTTSISIPTSDPKKVEELAEEIEPKGYTATITLESAG [r5_791_JUSTAS] | 1.17 ± 0.018 | 1.36 ± 0.17 | 1.3 ± 0.086
17 | SAGMKPLSDPEAQELAKEVAEKGYLVYTLKYPDGTVITVVSKSEEEVEALLEKSPYPIKEIVIIPPEKPSAG [r5_481_JUSTAS] | 1.16 ± 0.082 | 1.74 ± 0.098 | 1.48 ± 0.12
18 | SAGMKSLTITETVTDPNSDNPITIITDPVTGKVIKLYPDGTATVYDPNNPNKSTTYKMSPEEVIEKMSSSAG [r5_491_JUSTAS] | 0.0921 ± 0.053 | 0.967 ± 0.088 | 0.673 ± 0.061
19 | SAGMKTYTITVPASEAEEAAEKAAEEIKKELGLPDSDTVEVTVTSYDPKTGTVTITITVTRPLPGGLSLSAG [r5_537_JUSTAS] | 2.74 ± 0.13 | 1.76 ± 0.084 | 2.19 ± 0.2
20 | SAGMKVPVTVKMKAEKEEELEKVIKEIKEETGFEFEVEKNPETKEYTVKVYATPEVVEILKKKGFDVESAGG [r19_306_TrMRF] | 1.9 ± 0.14 | 3.2 ± 0.081 | 2.77 ± 0.24
21 | SAGMKYTAEVKVKEKDKEIDVTVSDDATFTDPEGKETTFKIGSEEELKKALEEIFPEKYPYEILSVKVLSAG [r14_41_JUSTAS] | -0.65 ± 0.47 | 0.156 ± 0.18 | -0.0975 ± 0.2
22 | SAGMLEISSDVLKALGIPVGATAEEVKERIQRRLEELGFEVEIPSVVIEELDPETGRVGVRIDLDLRPPSAG [r5_23_TrMRF] | 3.05 ± 0.18 | 2.23 ± 0.35 | 2.5 ± 0.23
23 | SAGMLKVKIKIEIEKDGKKIELEKEIEAESEEELLKAAEELAKELEKKGIKIKKIEVEVEKIPEPEEEESAG [r5_660_TrROS_Hall] | 2.04 ± 0.12 | 2.77 ± 0.055 | 2.5 ± 0.12
24 | SAGMLSSETVPFPDSEITIEYDPETGTVKITTTTTTSSPSLDYRTGKPGSVSSSTTTSFEVEAEPGAELSAG [r5_195_JUSTAS] | 0.0129 ± 0.076 | 0.323 ± 0.17 | 0.254 ± 0.18
25 | SAGMLTYRFTVPAEEAEEAAEELAETLRRELGLPEEVKVEVKVVEYDPETGLVTVEAVVYRPLPEGVEPSAG [r5_537_TrMRF] | 4.21 ± 0.16 | 4.44 ± 0.11 | 4.5 ± 0.14
26 | SAGMMKFPPGAKIKIVNKETGEEKEITLPEGAEVEFDEETGEVHIRVKVDGKEYRFTFKNGEIVEVEEVSAG [r5_22_TrROS_Hall] | 3.23 ± 0.26 | 4.3 ± 0.066 | 3.73 ± 0.3
